From paper doi:10.1101/2025.04.02.646877 (bioRxiv, 2025) come the findings set out here.

This data set deals with the molecule itself. The data set is described as follows: SEC-MALS. Background: Size exclusion chromatography separates by hydrodynamic size, large species first.

B1: ribose repressor (RbsR) (natural protein, E. coli, UniProt P0ACQ0 1-330, looked up)
chain: MATMKDVARLAGVSTSTVSHVINKDRFVSEAITAKVEAAIKELNYAPSALARSLKLNQTHTIGMLITASTNPFYSELVRGVERSCFERGYSLVLCNTEGDEQRMNRNLETLMQKRVDGLLLLCTETHQPSREIMQRYPTVPTVMMDWAPFDGDSDLIQDNSLLGGDLATQYLIDKGHTRIACITGPLDKTPARLRLEGYRAAMKRAGLNIPDGYEVTGDFEFNGGFDAMRQLLSHPLRPQAVFTGNDAMAVGVYQALYQAELQVPQDIAVIGYDDIELASFMTPPLTTIHQPKDELGELAIDVLIHRITQPTLQQQRLQLTPILMERGSA
What is called stoichiometry N is the number of molecules, sites or subunits per partner or assembly. Regarding B1, the “stoichiometry N” value was 2.

B2: lac repressor (LacI), functional dimeric form (residues 1-331) (domain or fragment, E. coli, UniProt P03023 1-331, looked up)
chain: MKPVTLYDVAEYAGVSYQTVSRVVNQASHVSAKTREKVEAAMAELNYIPNRVAQQLAGKQSLLIGVATSSLALHAPSQIVAAIKSRADQLGASVVVSMVERSGVEACKAAVHNLLAQRVSGLIINYPLDDQDAIAVEAACTNVPALFLDVSDQTPINSIIFSHEDGTRLGVEHLVALGHQQIALLAGPLSSVSARLRLAGWHKYLTRNQIQPIAEREGDWSAMSGFQQTMQMLNEGIVPTAMLVANDQMALGAMRAITESGLRVGADISVVGYDDTEDSSCYIPPLTTIKQDFRLLGQTSVDRLLQLSQGQAVKGNQLLPVSLVKRKTTLA
On to B2, for which the “stoichiometry N” value came to 2.
